± gives the standard deviation of the averaged measurements.
System: Saccharomyces cerevisiae
Assay: protein stability index of tFT-peptide fusion (C-terminal peptide) (PSI (0-1 scale)); higher = more stable (slower turnover)
Conditions: genetic background: wild type; temperature: 30 C
Protocol: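 Multiplexed protein stability (MPS) profiling in S. cerevisiae. Random 12-aa peptides (tFT-X12 library) are fused to the C-terminus of a sfGFP-mCherry tandem fluorescent timer, after mCherry and a GGGS linker. Cells are FACS-sorted into 8 mCherry/sfGFP bins and deep-sequenced. The protein stability index (PSI) is the read-weighted bin average, scaled from 0 (unstable) to 1 (stable). Only peptides with >10 reads are reported; cells were grown at 30 °C in SC-His with glucose.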
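Also: PSI is a weighted mean of sequencing reads over stability bins, variants kept only with over 10 reads, mCherry proximal and sfGFP distal, peptide attached via GGGS linker.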

Sequence	protein stability index
DQKSGCPVRIYR	0.623 ± 0.029
KKKKKKKRNKHN	0.706 ± 0.048
DLIYRLHTANWR	0.809 ± 0.034
GGGAADGGGGRG	0.646 ± 0.059
LSPPRSAPPPPR	0.699 ± 0.014
PPILRPAKSAQG	0.705 ± 0.024
PPPAPPPLAPPL	0.713 ± 0.0086
WSSVLGYFSRKE	0.702 ± 0.024
PPPPLVPLPASP	0.688 ± 0.072
SVNGTGGGVVDL	0.638 ± 0.12
RPGPGHYRSIIL	0.669 ± 0.11
KAKKNNERAKHR	0.681 ± 0.029
PIPPPPPLRPSS	0.69 ± 0.011
DFLDPLQDEWPC	0.805 ± 0.039
TPGGRTLATALR	0.676 ± 0.018
LPPPPPPPPPSP	0.82377 ± 0.00068
SPPLTSPPPAPP	0.7 ± 0.017
GEWCGGVAVFWR	0.693 ± 0.028
VRFRCIPGSPVC	0.643 ± 0.0094
GGGWGERGRGGS	0.729 ± 0.037
RSCPILLLSFPL	0.62297 ± 0.00052
YSHSRVNPDAWG	0.669 ± 0.11
PKKDNIQLQKPA	0.694 ± 0.028
RICRWGSRAVVG	0.685 ± 0.015
YRSPPPLRGLIP	0.711 ± 0.088

Sequence	protein stability index
RPFVSSAGSQFP	0.808 ± 0.046
SKEKKRPDNKTF	0.71 ± 0.048
ICSFVFTTLFGG	0.6442 ± 0.0026
GIKRKEKEKKNN	0.615 ± 0.026
KKKRRFTQEMDK	0.684 ± 0.17
RPDTGPPRRNRE	0.715 ± 0.031
RTKETTTRQKKK	0.708 ± 0.052
PPPSLPATPIPP	0.656 ± 0.055
LGVFAVGGVRLG	0.668 ± 0.008
GGCSGGNGGCDG	0.678 ± 0.028
SFLVPLTAHISP	0.673 ± 0.083
GGGVGGWGTWVV	0.715 ± 0.1
CSPSYTCRIISF	0.7076 ± 0.006
DCLSVWCSIPGA	0.775 ± 0.086
SSALVLSGPPHS	0.782 ± 0.1
EKVRICKWKGGI	0.616 ± 0.061
DGSKRDWFYNSA	0.725 ± 0.059
CLTTVCHRRVRC	0.655 ± 0.075
PRPPPLPPPLPL	0.5773 ± 0.0032
SVAPAPYQTAKQ	0.744 ± 0.032
RPPFPPLPLPPP	0.674 ± 0.088
VIVRAFRWNLVR	0.605 ± 0.029
PPPPPPPPPVLP	0.675 ± 0.0081
HPPPTHAQGRLV	0.671 ± 0.021
CLVGSLTDIAWL	0.756 ± 0.028

Sequence	protein stability index
KAKKLRKKNENK	0.671 ± 0.038
PVLRPPTPPRFR	0.661 ± 0.028
SPRSATAPPPLP	0.71 ± 0.028
RYQMVTGPPQRH	0.6921 ± 0.004
PPPHTRVIPSSP	0.6763 ± 0.0052
SVPFPTEYLVVD	0.681 ± 0.075
KLSIKNLFDLLY	0.691 ± 0.033
VEGFVPEDGKEE	0.684 ± 0.024
NFVLACYSYNYW	0.523 ± 0.011
RNYIVLYYDEGD	0.673 ± 0.074
KAHSFAYVINCL	0.589 ± 0.045
GVPFPGPNTLIL	0.73 ± 0.075
VASFLRFRLPPQ	0.71 ± 0.083
PPHPPPTTVHLA	0.7052 ± 0.002
PPHASRAPPFPR	0.671 ± 0.047
SPSSFLLSPPIP	0.764 ± 0.071
FLFRSFACALPS	0.522 ± 0.0081
LRPLKVSGGGRG	0.685 ± 0.045
LPLRLVPLFSPP	0.722 ± 0.025
PSPPLPPLPPSP	0.575 ± 0.053
FNEKNKKSTLER	0.652 ± 0.043
PRLSPPRSPSPP	0.665 ± 0.0091
PPAHIFHPPPAR	0.699 ± 0.081
PPSPRPVPPPCH	0.705 ± 0.072
PSLSPYPLQPRY	0.751 ± 0.034

Sequence	protein stability index
PLSPSPPPAFPA	0.794 ± 0.039
PSAPFPPVYPLH	0.687 ± 0.017
SHLFPCRSSFPP	0.656 ± 0.037
VLFGLSTSSLCL	0.644 ± 0.075
VGFRMAMVVGGL	0.519 ± 0.026
PRTAAFDSLLPT	0.688 ± 0.036
AYTSVSVDHLIH	0.673 ± 0.0069
FVEIRGGGDRRM	0.706 ± 0.013
LYHARTIRQSAK	0.701 ± 0.018
RHPEVGAATDGC	0.708 ± 0.068
PWVLSLASGSPS	0.687 ± 0.026
GRTDKKKFISGL	0.608 ± 0.029
QFTSPHLNPFRT	0.6783 ± 0.0058
GGVRAAGTGCGG	0.642 ± 0.031
DDGGQPKVLLCV	0.6688 ± 0.0011
KKTEGATEERKR	0.692 ± 0.015
VGLTGFSQLGDG	0.675 ± 0.032
FPMHFRVRCRPV	0.62 ± 0.045
GAGVCEQGLALA	0.649 ± 0.091
FPCAPFLLLDVS	0.663 ± 0.0029
QGVLKYPRPSPP	0.7071 ± 0.0016
PYFQASLSCLPS	0.744 ± 0.036
YKRRYTKNQIRK	0.666 ± 0.054
LLPSAAKLTLLP	0.77 ± 0.07
GVEGAEFVEAGT	0.699 ± 0.041

Sequence	protein stability index
PYLLSLLSPLPL	0.7005 ± 0.007
DIQINENIYKNK	0.687 ± 0.048
PPPPPIPRPPHA	0.73 ± 0.03
TSIFRIICLTDR	0.642 ± 0.022
IFWVGLSYVAEQ	0.65 ± 0.0084
RVPPPTSPPSPP	0.694 ± 0.012
PPPDKTPERRPC	0.644 ± 0.054
AELSTRPPAPPL	0.715 ± 0.096
SLELWPGAKGAP	0.702 ± 0.1
SRSLHGTEEYRE	0.644 ± 0.099
PSEFGAGYVMGG	0.71 ± 0.017
RGIFLGVCALDY	0.696 ± 0.0085
RVTPGLSIFFWP	0.729 ± 0.0094
LRGLAVWCGYFS	0.619 ± 0.02
VREMGSPGLYRP	0.713 ± 0.01
YDRFVNGKSPGM	0.701 ± 0.06
RFVCSRLGGSVP	0.64 ± 0.0029
LHKAATADPPRV	0.711 ± 0.02
KEATTEKNTTRA	0.6895 ± 0.0023
YCRSFSGPFFDI	0.745 ± 0.094
CPGTSLVLPPLL	0.688 ± 0.019
SWVSQFLVFWPV	0.716 ± 0.044
NAKQVYVSVMTR	0.5 ± 0.063
VRHYSSNFAPFI	0.676 ± 0.025
RKTPAITSNIQI	0.722 ± 0.027

Sequence	protein stability index
LRTHPPGPLPLA	0.654 ± 0.12
RGGARGRQGCGG	0.765 ± 0.034
LGCLRLVPSPPG	0.757 ± 0.1
FCPPMPSVIALH	0.649 ± 0.024
KKKKDQQQELKN	0.657 ± 0.032
KTQKKKKKNKNF	0.51 ± 0.028
AWPGPKMCWVVK	0.6294 ± 0.0023
GCRGVVVDGCGW	0.593 ± 0.0073
GLGQGVGWPWAV	0.678 ± 0.024
QPLDCPPYHPHH	0.687 ± 0.016
SSSPSPRPPRPP	0.679 ± 0.0097
LLFRCGARSAGG	0.676 ± 0.022
LKSYHKLKTCSS	0.678 ± 0.061
DYSRCGCRLSGK	0.677 ± 0.03
CLAPPTFAPSSL	0.752 ± 0.081
SRPRTTRKAASS	0.674 ± 0.012
VPPPPPCTIPFP	0.678 ± 0.07
VPDRIFRSASQT	0.714 ± 0.0049
ITQTRGPRPLAH	0.7471 ± 0.0043
CCKMITYKEGRE	0.692 ± 0.06
VGCSGGRGAGVV	0.649 ± 0.018
